# Numbering of substitutions follows the chain as printed.
# B1: M1599 (antibody, V domains shown)
# VH: EVQLVQSGAEVKKPGESLRISCKGSGYTFGPYWIEWVRQMPGKGLEWMGDILPGTGYTLYSPSFQGHVTISADKSISTAYLQWSSLKASDTAMYYCARSGYYGNSGFAYWGQGTLVTVSS
# VL: DIVMTQTPLSLPVTPGEPASISCKSSQSLLSSGNQKNYLTWYLQKPGQSPQLLIYWASTRESGVPDRFSGSGSGTDFTLKISRVEAEDVGVYYCQNDYTYPLTFGQGTKLEIK
# notes: complete MAb; FR4 is its own entry; also called H130/L3
# B2: M1647 (antibody, V domains shown)
# VH: B1 VH with G30A, Y57F, L59T
# VL: B1 VL with S31Y, K36R, E61S, Y98D, L102M
# notes: complete MAb; FR4 is its own entry; also called H171/L320
# B3: M1645 (antibody, V domains shown)
# VH: B1 VH with G30I, P31T, T55S, Y57S, L59N
# VL: B1 VL with S31Y, S32T, G33S, Y98D, T99Y, Y100W
# notes: complete MAb; FR4 is its own entry; also called H22/L283
# B4: M1650 (antibody, V domains shown)
# VH: B1 VH with G30A, Y57F, L59T
# VL: B1 VL with S31T, G33Y, K36R, Y98L
# notes: complete MAb; FR4 is its own entry; also called H171/L369
# B5: M1640 (antibody, V domains shown)
# VH: B1 VH with G30I, P31T, T55S, Y57S, L59N
# VL: B1 VL with S31P, G33W, K36S, Y98F
# notes: complete MAb; FR4 is its own entry; also called H22/L327
# B6: M1648 (antibody, V domains shown)
# VH: B1 VH with G30A, Y57F, L59T
# VL: B1 VL with S31P, G33W, K36S, Y98F
# notes: complete MAb; FR4 is its own entry; also called H171/L327
# B7: M1639 (antibody, V domains shown)
# VH: B1 VH with G30I, P31T, T55S, Y57S, L59N
# VL: B1 VL with S31Y, K36R, E61S, Y98D, L102M
# notes: complete MAb; FR4 is its own entry; also called H22/L320
# B8: M1610 (antibody, V domains shown)
# VH: B1 VH with G30A, L52I, L59T
# VL: B1 VL
# notes: complete MAb; FR4 is its own entry; also called H115/L3
# B9: M1602 (antibody, V domains shown)
# VH: B1 VH with G30D, P31A, Y32H, T55S, Y57F, L59D
# VL: B1 VL
# notes: complete MAb; FR4 is its own entry; also called H106/L3
# B10: M1643 (antibody, V domains shown)
# VH: B1 VH with G30I, P31T, T55S, Y57S, L59N
# VL: B1 VL with S31Y, S32V, G33Y, N34G, Y98F, T99S, Y100W
# notes: complete MAb; FR4 is its own entry; also called H22/L162
# B11: M1638 (antibody, V domains shown)
# VH: B1 VH with G30I, P31T, T55S, Y57S, L59N
# VL: B1 VL with S31W, S32F, G33V, W56H, Y98D, T99S
# notes: complete MAb; FR4 is its own entry; also called H22/L138
# B12: M1641 (antibody, V domains shown)
# VH: B1 VH with G30I, P31T, T55S, Y57S, L59N
# VL: B1 VL with S31F, G33A, K36R, E61D, Y98D
# notes: complete MAb; FR4 is its own entry; also called H22/L335
# B13: M1613 (antibody, V domains shown)
# VH: B1 VH with G30S, P31S, Y32H, T55S, Y57F, L59H, Q82K
# VL: B1 VL
# notes: complete MAb; FR4 is its own entry; also called H136/L3
# B14: M1606 (antibody, V domains shown)
# VH: B1 VH with G30I, Y32H, T55S, Y57W, L59N
# VL: B1 VL
# notes: complete MAb; FR4 is its own entry; also called H181/L3
# B15: M1604 (antibody, V domains shown)
# VH: B1 VH with G30A, L59W
# VL: B1 VL
# notes: complete MAb; FR4 is its own entry; also called H138/L3
# B16: M1644 (antibody, V domains shown)
# VH: B1 VH with G30I, P31T, T55S, Y57S, L59N
# VL: B1 VL with S31F, S32R, G33P, N34T, Y98D, T99S
# notes: complete MAb; FR4 is its own entry; also called H22/L225
# B17: M1642 (antibody, V domains shown)
# VH: B1 VH with G30I, P31T, T55S, Y57S, L59N
# VL: B1 VL with S31T, G33Y, K36R, Y98L
# notes: complete MAb; FR4 is its own entry; also called H22/L369
# B18: M1601 (antibody, V domains shown)
# VH: B1 VH with L59V
# VL: B1 VL
# notes: complete MAb; FR4 is its own entry; also called H105/L3
# B19: M1605 (antibody, V domains shown)
# VH: B1 VH with P31T, Y57H, L59T
# VL: B1 VL
# notes: complete MAb; FR4 is its own entry; also called H168/L3
# B20: M23 (antibody, V domains shown)
# VH: QVQLVQSGAEVKKPGASVKVSCKASGYTFITYWIEWVRQAPGQRLEWMGDILPGSGSTNYNENFKGRVTITRDTSASTAYMELSSLRSEDTAVYYCARSGYYGNSGFAYWGQGTLVTVSS
# VL: DIVMTQSPDSLAVSLGERATINCKSSQSLLSSGNQKNYLTWYQQKPGQPPKLLIYWASTRESGVPDRFSGSGSGTDFTLTISSLQAEDVAVYYCQNDYTYPLTFGQGTKLEIK
# notes: complete MAb; FR4 is its own entry; also called H17/L2
# B21: M44 (antibody, V domains shown)
# VH: B20 VH with R44G, I70M, R72T, A76T, S84R, E89D
# VL: B20 VL
# notes: complete MAb; FR4 is its own entry; also called H20/L2
# B22: M65 (antibody, V domains shown)
# VH: B20 VH with A16S, R44G, N61A, E62Q, N63K, K65Q, R72A, T74E, A76T
# VL: B20 VL
# notes: complete MAb; FR4 is its own entry; also called H23/L2
# B23: M63 (antibody, V domains shown)
# VH: B1 VH with G30I, P31T, T55S, Y57S, L59N
# VL: B1 VL with L11S, P15L, E17Q, Y42L, L43Q, K45R, S49P, Q51R, S73A
# notes: complete MAb; FR4 is its own entry; also called H22/L7
# B24: M21 (antibody, V domains shown)
# VH: B20 VH with R44G, I70M, A76T, A79V
# VL: B1 VL with L11S, P15L, E17Q, Y42L, L43Q, K45R, S49P, Q51R, S73A
# notes: complete MAb; FR4 is its own entry; also called H16/L7
# B25: M49 (antibody, V domains shown)
# VH: B20 VH with R44G, I70M, R72T, A76T, S84R, E89D
# VL: B1 VL with L11S, P15L, E17Q, Y42L, L43Q, K45R, S49P, Q51R, S73A
# notes: complete MAb; FR4 is its own entry; also called H20/L7
# B26: M38 (antibody, V domains shown)
# VH: B20 VH with A16S, R44G, R72A, T74E, A76T
# VL: B1 VL
# notes: complete MAb; FR4 is its own entry; also called H19/L3
# B27: M70 (antibody, V domains shown)
# VH: B20 VH with A16S, R44G, N61A, E62Q, N63K, K65Q, R72A, T74E, A76T
# VL: B1 VL with L11S, P15L, E17Q, Y42L, L43Q, K45R, S49P, Q51R, S73A
# notes: complete MAb; FR4 is its own entry; also called H23/L7
# B28: M28 (antibody, V domains shown)
# VH: B20 VH
# VL: B1 VL with L11S, P15L, E17Q, Y42L, L43Q, K45R, S49P, Q51R, S73A
# notes: complete MAb; FR4 is its own entry; also called H17/L7
# B29: M24 (antibody, V domains shown)
# VH: B20 VH
# VL: B1 VL
# notes: complete MAb; FR4 is its own entry; also called H17/L3
# B30: M47 (antibody, V domains shown)
# VH: B20 VH with R44G, I70M, R72T, A76T, S84R, E89D
# VL: B1 VL with P12S, E17Q, S49P
# notes: complete MAb; FR4 is its own entry; also called H20/L5
# B31: M18 (antibody, V domains shown)
# VH: B20 VH with R44G, I70M, A76T, A79V
# VL: B1 VL with T7S
# notes: complete MAb; FR4 is its own entry; also called H16/L4
# B32: M17 (antibody, V domains shown)
# VH: B20 VH with R44G, I70M, A76T, A79V
# VL: B1 VL
# notes: complete MAb; FR4 is its own entry; also called H16/L3
# B33: M25 (antibody, V domains shown)
# VH: B20 VH
# VL: B1 VL with T7S
# notes: complete MAb; FR4 is its own entry; also called H17/L4
# B34: M67 (antibody, V domains shown)
# VH: B20 VH with A16S, R44G, N61A, E62Q, N63K, K65Q, R72A, T74E, A76T
# VL: B1 VL with T7S
# notes: complete MAb; FR4 is its own entry; also called H23/L4
# B35: M39 (antibody, V domains shown)
# VH: B20 VH with A16S, R44G, R72A, T74E, A76T
# VL: B1 VL with T7S
# notes: complete MAb; FR4 is its own entry; also called H19/L4
# B36: M66 (antibody, V domains shown)
# VH: B20 VH with A16S, R44G, N61A, E62Q, N63K, K65Q, R72A, T74E, A76T
# VL: B1 VL
# notes: complete MAb; FR4 is its own entry; also called H23/L3
# B37: M40 (antibody, V domains shown)
# VH: B20 VH with A16S, R44G, R72A, T74E, A76T
# VL: B1 VL with P12S, E17Q, S49P
# notes: complete MAb; FR4 is its own entry; also called H19/L5
# Biological target: T1, recombinant extracellular domain (ECD) of human TF, amino acid 1-219 of the mature chain, C-terminal His6-tag (human, UniProt P13726 33-251)
# T1 construct: expressed in a mammalian system; used for ELISA and Biacore; biotinylated by NHS-ester for the Fab ELISA; also called His6-TF-ECD1-219; HumanTF1-219
# Assay: Biacore
Kd [nM],koff [s⁻¹],kon [M⁻¹ s⁻¹],Binder
0.39,5.3e-05,138000,B1
0.1,–,–,B2
0.08,–,–,B3
0.19,–,–,B4
0.76,–,–,B5
0.73,–,–,B6
0.08,–,–,B7
0.54,0.0001,184000,B8
0.62,8.2e-05,132000,B9
0.18,–,–,B10
0.2,–,–,B11
0.12,–,–,B12
0.92,7e-05,75700,B13
0.18,2.9e-05,166000,B14
0.14,2.2e-05,152000,B15
0.12,–,–,B16
0.95,–,–,B17
0.33,4.6e-05,137000,B18
0.64,8.6e-05,135000,B19

# Biological target: T1, recombinant extracellular domain (ECD) …
# Assay: direct ELISA, 50 ng/ml
row,binding result,Binder
1,binds,B20
2,binds,B21
3,binds,B22
4,binds,B23
5,binds,B24
6,binds,B25
7,binds,B26
8,binds,B27
9,binds,B28
10,binds,B29
11,binds,B30
12,binds,B31
13,binds,B32
14,binds,B33
15,binds,B34
16,binds,B35
17,binds,B36
18,binds,B37

# Biological target: Innovin, lyophilized recombinant human tissue factor combined with phospholipids (human, UniProt P13726 33-295, limits assumed)
# Assay: cell-based or functional assay
row,"T½ Max (seconds), coagulation of human plasma [s]",Binder
1,151,B1
2,160,B2
3,154,B3
4,150,B4
5,168,B5
6,161,B6
7,167,B7
8,164,B8
9,163,B9
10,148,B10
11,163,B11
12,162,B12
13,165,B13
14,157,B14
15,165,B15
16,150,B16
17,166,B17
18,180,B18
19,160,B19
